Reference: publication doi:10.1101/2024.10.11.617762

Biological target: SARS-CoV-2 nucleocapsid C-terminal domain (N-CTD) (SARS-CoV-2, UniProt P0DTC9 247-364)
Assay: fluorescence intensity

UCUCUAAACG (ssRNA) [FAM-labelled 10-mer TRS RNA probe]
binding result: binds
